Our source for the Peptide exchange values is patent publication US10472401B2, “Peptides and combination of peptides for use in immunotherapy against ovarian cancer and other cancers” (immatics biotechnologies GmbH, priority 2015, dated 2019).

The experiment has as its target HLA-A*02:01 (Homo sapiens, UniProt P04439, D140Y/D185E/D98H/E176V/E277Q/G131W/G231S/I119V/I121R/I166T/I218V/L300P/L318F/N151K/N90K/P208A/P217A/Q86G/Q94H/R138H/R169H/T345S). Nature of the experiment: MHC binding assay (UV-ligand exchange, ELISA of stabilized MHC complexes). The conditions noted are these: MHC class I binding score; binding to HLA-A*02:01 ranged by peptide exchange yield (UV-ligand exchange, ELISA). An excerpt:
Candidate peptides for T cell based therapies according to the present invention were further tested for their MHC binding capacity (affinity). The individual peptide-MHC complexes were produced by UV-ligand exchange, where a UV-sensitive peptide is cleaved upon UV-irradiation, and exchanged with the peptide of interest as analyzed. Only peptide candidates that can effectively bind and stabilize the peptide-receptive MHC molecules prevent dissociation of the MHC complexes. To determine the yield of the exchange reaction, an ELISA was performed based on the detection of the light chain (β2m) of stabilized MHC complexes. The assay was performed as generally described in Rodenko et al. (Rodenko et al., 2006).
96 well MAXISorp plates (NUNC) were coated over night with 2 ug/ml streptavidin in PBS at room temperature, washed 4× and blocked for 1h at 37° C. in 2% BSA containing blocking buffer. […] Peptide-MHC monomers of the UV-exchange reaction were diluted 100 fold in blocking buffer. Samples were incubated for 1h at 37° C., washed four times, incubated with 2 ug/ml HRP conjugated anti-82m for 1h at 37° C., washed again and detected with TMB solution that is stopped with […]. Absorption was measured at 450 nm. Candidate peptides that show a high exchange yield (preferably higher than 50%, most preferred higher than 75%) are generally preferred for a generation and production of antibodies or fragments thereof, and/or T cell receptors or fragments thereof, as they show sufficient avidity to the MHC molecules and prevent dissociation of the MHC complexes.
Take “35 (KINDTIYEV; listed as Homo sapiens) [compound 35]”: the Peptide exchange result is on record as “″+++″ (≥50% = +++)”.
Consider “39 (SVAPNLPAV; listed as Homo sapiens) [compound 39]”, for which the Peptide exchange entry is “″+++″ (≥50% = +++)”.
The entry for “40 (TLLVKVFSV; listed as Homo sapiens) [compound 40]” is “″+++″ (≥50% = +++)”; for “41 (SLMPHIPGL; listed as Homo sapiens) [compound 41]” it is “″+++″ (≥50% = +++)”.
The entry for “42 (VLLQKIVSA; listed as Homo sapiens) [compound 42]” is “″+++″ (≥50% = +++)”; for “43 (VLSSLEINI; listed as Homo sapiens) [compound 43]” it is “″++″ (≥20% = ++)”.
The entry for “44 (ILDPISSGFLL; listed as Homo sapiens) [compound 44]” is “″++″ (≥20% = ++)”.
With “45 (SLWQDIPDV; listed as Homo sapiens) [compound 45]”, the Peptide exchange entry is “″+++″ (≥50% = +++)”.
For the substance “46 (ILTEENIHL; listed as Homo sapiens) [compound 46]”, the Peptide exchange entry is “″+++″ (≥50% = +++)”.
Consider “47 (ILLSVPLLVV; listed as Homo sapiens) [compound 47]”, for which the Peptide exchange entry is on record as “″++″ (≥20% = ++)”.
The entry for “49 (YLPAVFEEV; listed as Homo sapiens) [compound 49]” is “″+++″ (≥50% = +++)”; for “50 (SLSELEALM; listed as Homo sapiens) [compound 50]” it is “″+++″ (≥50% = +++)”; for “51 (LLPDLEFYV; listed as Homo sapiens) [compound 51]” it is “″++++″ (≥75% = ++++)”.
The entry for “52 (FLLAHGLGFLL; listed as Homo sapiens) [compound 52]” is “″++++″ (≥75% = ++++)”; for “53 (KMIETDILQKV; listed as Homo sapiens) [compound 53]” it is “″++++″ (≥75% = ++++)”; for “54 (SLLEQGKEPWMV; listed as Homo sapiens) [compound 54]” it is “″+++″ (≥50% = +++)”.
In the case of “55 (SLLDLETLSL; listed as Homo sapiens) [compound 55]”, the Peptide exchange entry was “″++++″ (≥75% = ++++)”.
For “57 (TLAELQPPVQL; listed as Homo sapiens) [compound 57]” the value was “″+++″ (≥50% = +++)”; for “59 (IMEDIILTL; listed as Homo sapiens) [compound 59]”, “″+++″ (≥50% = +++)”; for “61 (FLQGYQLHL; listed as Homo sapiens) [compound 61]”, “″++++″ (≥75% = ++++)”.
The entry for “62 (VLLDVSAGQLLM; listed as Homo sapiens) [compound 62]” is “″++++″ (≥75% = ++++)”; for “63 (YLLPSGGSVTL; listed as Homo sapiens) [compound 63]” it is “″++″ (≥20% = ++)”.
For “64 (YAAPGGLIGV; listed as Homo sapiens) [compound 64]” the value was “″++″ (≥20% = ++)”.
“66 (FLDENIGGVAV; listed as Homo sapiens) [compound 66]”: the Peptide exchange result is “″+++″ (≥50% = +++)”.
The entry for “67 (TLLAEALVTV; listed as Homo sapiens) [compound 67]” is “″+++″ (≥50% = +++)”.
For “68 (SLMELPRGLFL; listed as Homo sapiens) [compound 68]” the value was “″++++″ (≥75% = ++++)”; for “69 (FQLDPSSGVLVTV; listed as Homo sapiens) [compound 69]”, “″+++″ (≥50% = +++)”.
For “70 (GLLDYPVGV; listed as Homo sapiens) [compound 70]” the value was “″+++″ (≥50% = +++)”.
With “71 (GILARIASV; listed as Homo sapiens) [compound 71]”, the Peptide exchange entry is listed as “″+++″ (≥50% = +++)”.
The entry for “72 (SLLELDGINL; listed as Homo sapiens) [compound 72]” is “″+++″ (≥50% = +++)”; for “73 (NIFDLQIYV; listed as Homo sapiens) [compound 73]” it is “″+++″ (≥50% = +++)”.
As for “74 (ALLDPEVLSIFV; listed as Homo sapiens) [compound 74]”, the Peptide exchange result is given as “″+++″ (≥50% = +++)”.
For “75 (GLLEVMVNL; listed as Homo sapiens) [compound 75]” the value was “″+++″ (≥50% = +++)”; for “76 (ILIDSIYKV; listed as Homo sapiens) [compound 76]”, “″+++″ (≥50% = +++)”; for “77 (ILVEADGAWVV; listed as Homo sapiens) [compound 77]”, “″++++″ (≥75% = ++++)”.
For “78 (SLFSSLEPQIQPV; listed as Homo sapiens) [compound 78]” the value was “″+++″ (≥50% = +++)”; for “80 (FLYDNLVESL; listed as Homo sapiens) [compound 80]”, “″++″ (≥20% = ++)”; for “81 (FLFSQLQYL; listed as Homo sapiens) [compound 81]”, “″++″ (≥20% = ++)”.
In the case of “82 (FLSSVTYNL; listed as Homo sapiens) [compound 82]”, the Peptide exchange result was “″+++″ (≥50% = +++)”.
For “83 (ILAPTVMMI; listed as Homo sapiens) [compound 83]” the value was “″+++″ (≥50% = +++)”; for “84 (VTFGEKLLGV; listed as Homo sapiens) [compound 84]”, “″++″ (≥20% = ++)”.
For “85 (KMSELRVTL; listed as Homo sapiens) [compound 85]”, the Peptide exchange result is listed as “″+++″ (≥50% = +++)”.
The entry for “86 (NLIGKIENV; listed as Homo sapiens) [compound 86]” is “″+++″ (≥50% = +++)”.
The entry for “87 (ALPEAPAPLLPHIT; listed as Homo sapiens) [compound 87]” is “″++″ (≥20% = ++)”; for “88 (FLLVGDLMAV; listed as Homo sapiens) [compound 88]” it is “″+++″ (≥50% = +++)”.
Consider “89 (YILPTETIYV; listed as Homo sapiens) [compound 89]”, for which the Peptide exchange entry is listed as “″++++″ (≥75% = ++++)”.
On to “90 (TLLQIIETV; listed as Homo sapiens) [compound 90]”, for which the Peptide exchange entry is given as “″+++″ (≥50% = +++)”.
For “91 (IMQDFPAEIFL; listed as Homo sapiens) [compound 91]”, the Peptide exchange entry was “″++++″ (≥75% = ++++)”.
Regarding “92 (YLIPFTGIVGL; listed as Homo sapiens) [compound 92]”, the Peptide exchange result is on record as “″++″ (≥20% = ++)”.
The entry for “93 (LLQAIKLYL; listed as Homo sapiens) [compound 93]” is “″++″ (≥20% = ++)”; for “94 (YLIDIKTIAI; listed as Homo sapiens) [compound 94]” it is “″++″ (≥20% = ++)”.
The entry for “95 (SVIPQIQKV; listed as Homo sapiens) [compound 95]” is “″+++″ (≥50% = +++)”.
The entry for “96 (YIFTDNPAAV; listed as Homo sapiens) [compound 96]” is “″+++″ (≥50% = +++)”; for “97 (SLINGSFLV; listed as Homo sapiens) [compound 97]” it is “″+++″ (≥50% = +++)”.
“98 (LIIDQADIYL; listed as Homo sapiens) [compound 98]”: the Peptide exchange entry is listed as “″+++″ (≥50% = +++)”.
As for “99 (ALVSKGLATV; listed as Homo sapiens) [compound 99]”, the Peptide exchange entry is given as “″++″ (≥20% = ++)”.
For “100 (YLLSTNAQL; listed as Homo sapiens) [compound 100]” the value was “″++++″ (≥75% = ++++)”; for “101 (ILVGGGALATV; listed as Homo sapiens) [compound 101]”, “″+++″ (≥50% = +++)”.
For “102 (YLFESEGLVL; listed as Homo sapiens) [compound 102]” the value was “″+++″ (≥50% = +++)”.
For “103 (TLAEEVVAL; listed as Homo sapiens) [compound 103]” the value was “″+++″ (≥50% = +++)”.
As for “104 (STMEQNFLL; listed as Homo sapiens) [compound 104]”, the Peptide exchange entry is “″++++″ (≥75% = ++++)”.
As to “106 (LLYDAVHIVSV; listed as Homo sapiens) [compound 106]”, the Peptide exchange result is “″+++″ (≥50% = +++)”.
For “107 (FLQPVDDTQHL; listed as Homo sapiens) [compound 107]” the value was “″+++″ (≥50% = +++)”; for “108 (ALFPGVALLLA; listed as Homo sapiens) [compound 108]”, “″++++″ (≥75% = ++++)”.
For “109 (IILSILEQA; listed as Homo sapiens) [compound 109]” the value was “″++++″ (≥75% = ++++)”.
